# Measurements: patent US20230364254A1, “METHODS FOR TREATING CANCERS WITH ANTIBODY DRUG CONJUGATES (ADC) THAT BIND TO 191P4D12 PROTEINS” (priority 2020, published 2023)
# System: patients with locally advanced or metastatic urothelial cancer
# Experiment: Same phase 2 study: safety (adverse events, NCI CTCAE v4.03)
# Format: in vivo, human
# Text: Safety assessments will be based on the information collected through the safety surveillance process and will include the data from recorded adverse events (AEs) including SAEs, recording of concomitant medication, physical examination findings, cardiac monitoring, and laboratory tests.
# The assessment of safety during the course of this study will consist of the surveillance and recording of AEs including SAEs, recording of concomitant medication, and measurements of protocol-specified physical examination findings, cardiac monitoring, and laboratory tests.
# AE severity should be graded using the National Cancer Institute's Common Terminology Criteria for Adverse Events (NCI CTCAE), Version 4.03. These criteria are provided in the study manual.
# An overview of AEs will provide a tabulation of the incidence of all AEs, treatment-emergent AEs, treatment-related AEs, Grade 3 and higher AEs. SAEs, treatment-related SAEs, deaths, and AEs leading to study treatment discontinuation. Adverse events will be defined as treatment emergent if they are newly occurring or worsened following study treatment.
# AEs will be classified by system organ class and preferred tem using the Medical Dictionary for Regulatory Activities (MedDRA) and graded using NCI CTCAE, Version 4.03.
# The incidence of AEs will be summarized by system organ class, preferred term, severity and relationship to study drug. In the event of multiple occurrences of the same AE in one patient, the AE will be counted once as the occurrence for the maximum grade. AEs leading to premature discontinuation of study drug will be summarized and listed in the same manner.
# [1] = Cohort 2 (N = 89), additional 3 months follow-up
# [2] = Cohort 2 (N = 89), count (percent)
# [3] = Cohort 2, additional 3 months follow-up
substance,measurement,setting,value
enfortumab vedotin: Nectin-4 directed ADC: fully human anti-nectin-4 IgG1 kappa antibody (AGS-22C3) conjugated to MMAE via protease-cleavable maleimidocaproyl valine-citrulline linker,"TRAEs, Any Grade: Neutropenia",[1],11 (12) n (%)
same,"TRAEs, Any Grade: Overall",[1],86 (97) n (%)
same,"TRAEs, Any Grade: Peripheral sensory neuropathy",[1],44 (49) n (%)
same,"TRAEs, Any Grade: Pruritus",[1],27 (30) n (%)
same,"TRAEs, Any Grade: Rash maculo-papular",[1],27 (30) n (%)
same,"TRAEs, Any Grade: nnn Weight decreased",[1],23 (26) n (%)
same,"TRAEs, ≥Grade 3: Anemia",[1],5 (6) n (%)
same,"TRAEs, ≥Grade 3: Decreased appetite",[1],5 (6) n (%)
same,"TRAEs, ≥Grade 3: Diarrhea",[1],5 (6) n (%)
same,"TRAEs, ≥Grade 3: Fatigue",[1],6 (7) n (%)
same,"TRAEs, ≥Grade 3: Hyperglycemia",[1],5 (6) n (%)
same,"TRAEs, ≥Grade 3: Lipase increased",[1],5 (6) n (%)
same,"TRAEs, ≥Grade 3: Nausea",[1],1 (1) n (%)
same,"TRAEs, ≥Grade 3: Neutropenia",[1],8 (9) n (%)
same,"TRAEs, ≥Grade 3: Overall",[1],49 (55) n (%)
same,"TRAEs, ≥Grade 3: Peripheral sensory neuropathy",[1],3 (3) n (%)
same,"TRAEs, ≥Grade 3: Pruritus",[1],3 (3) n (%)
same,"TRAEs, ≥Grade 3: Rash maculo-papular",[1],7 (8) n (%)
same,"TRAEs, ≥Grade 3: nnn Weight decreased",[1],1 (1) n (%)
same,TEAEs leading to death (excluding disease progression): Acute kidney injury,[2],2 (2.2)
same,TEAEs leading to death (excluding disease progression): Metabolic acidosis,[2],1 (1.1)
same,TEAEs leading to death (excluding disease progression): Multiple organ dysfunction syndrome,[2],1 (1.1)
same,TEAEs leading to death (excluding disease progression): Overall,[2],5 (5.6)
same,TEAEs leading to death (excluding disease progression): Sepsis,[2],1 (1.1)
same,"Primary Cause of Death, treatment-related death","Cohort 2, Subject 10007-0180, death on study day 15",Metabolic acidosis
same,"Primary Cause of Death, treatment-related death","Cohort 2, Subject 10013-0190, death on study day 28",Acute kidney injury
same,"Primary Cause of Death, treatment-related death","Cohort 2, Subject 10030-0197, death on study day 25",Multiple organ
same,"Primary Cause of Death, treatment-related death","Cohort 2, Subject 82004-0178, death on study day 203",Pneumonitis
same,"Treatment-related TEAEs of interest: hyperglycemia, all grade",[3],10%
same,"Treatment-related TEAEs of interest: hyperglycemia, ≥G3",[3],6%
same,"Treatment-related TEAEs of interest: peripheral neuropathy, all grade",[3],56%
same,"Treatment-related TEAEs of interest: peripheral neuropathy, ≥G3",[3],8%
same,"Treatment-related TEAEs of interest: rash, all grade",[3],61%
same,"Treatment-related TEAEs of interest: rash, ≥G3",[3],17%
same,patients who discontinued treatment due to grade 3 dermatitis bullous,[3],one
same,skin reactions: grade 4 events,[3],1
same,skin reactions: grade 5 events,[3],no grade 5 events
same,treatment-related TEAEs (all-grade): alopecia,[3],51%
same,treatment-related TEAEs (all-grade): fatigue,[3],34%
same,treatment-related TEAEs (all-grade): peripheral sensory neuropathy,[3],49%
same,patients with severe cutaneous adverse reactions,"Cohort 2, irrespective of grade, additional 3 months follow-up",13
same,rate of hyperglycemia,"Cohort 2, patients with preexisting hyperglycemia",20%
same,rate of peripheral neuropathy,"Cohort 2, patients with preexisting peripheral neuropathy",60%
same,rate of hyperglycemia,"Cohort 2, patients without preexisting hyperglycemia",7%
same,rate of peripheral neuropathy,"Cohort 2, patients without preexisting peripheral neuropathy",55%
same,patients with severe cutaneous adverse reactions who had grade 3 events,"Cohort 2, stomatitis, skin exfoliation, dermatitis bullous, dermatitis exfoliative generalized",4
same,additional treatment-related deaths in the updated analysis,"Cohort 2, three-month follow-up",No additional treatment-related deaths
same,"AE of special interest, All Grade: Hyperglycemia",Total (N = 214),36 (16.8) N (%)
same,"AE of special interest, All Grade: IRR",Total (N = 214),14 (6.5) N (%)
same,"AE of special interest, All Grade: Ocular Events, Blurred Vision",Total (N = 214),30 (14.0) N (%)
same,"AE of special interest, All Grade: Ocular Events, Corneal Disorders",Total (N = 214),23 (10.7) N (%)
same,"AE of special interest, All Grade: Ocular Events, Dry Eye Disorders",Total (N = 214),78 (36.4) N (%)
same,"AE of special interest, All Grade: Peripheral Neuropathy",Total (N = 214),122 (57.0) N (%)
same,"AE of special interest, All Grade: Rash",Total (N = 214),126 (58.9) N (%)
same,"AE of special interest, ≥Gr 3: Hyperglycemia",Total (N = 214),18 (8.4) N (%)
same,"AE of special interest, ≥Gr 3: IRR",Total (N = 214),2 (0.9) N (%)
same,"AE of special interest, ≥Gr 3: Peripheral Neuropathy",Total (N = 214),12 (5.6) N (%)
same,"AE of special interest, ≥Gr 3: Rash",Total (N = 214),30 (14.0) N (%)
same,Any TEAEs,Total (N = 214),214 (100.0) n (%)
same,Any TEAEs leading to death,Total (N = 214),15 (7.0) n (%)
same,Any TEAEs leading to treatment discontinuation,Total (N = 214),38 (18.2) n (%)
same,Any grade 3-5 TEAEs,Total (N = 214),155 (72.4) n (%)
same,Any serious TEAEs,Total (N = 214),94 (43.9) n (%)
same,SAEs (All): Acute kidney injury,Total (N = 214),13 (6.1) n (%)
same,SAEs (All): Cellulitis,Total (N = 214),6 (2.8) n (%)
same,SAEs (All): Diarrhoea,Total (N = 214),6 (2.8) n (%)
same,SAEs (All): Febrile neutropenia,Total (N = 214),6 (2.8) n (%)
same,SAEs (All): Nausea,Total (N = 214),5 (2.3) n (%)
same,SAEs (All): Overall,Total (N = 214),94 (43.9) n (%)
same,SAEs (All): Pneumonia,Total (N = 214),6 (2.8) n (%)
same,SAEs (All): Sepsis,Total (N = 214),8 (3.7) n (%)
same,SAEs (All): Urinary tract infection,Total (N = 214),9 (4.2) n (%)
same,SAEs (Related): Acute kidney injury,Total (N = 214),4 (1.9) n (%)
same,SAEs (Related): Cellulitis,Total (N = 214),2 (0.9) n (%)
same,SAEs (Related): Diarrhoea,Total (N = 214),3 (1.4) n (%)
same,SAEs (Related): Febrile neutropenia,Total (N = 214),6 (2.8) n (%)
same,SAEs (Related): Nausea,Total (N = 214),4 (1.9) n (%)
same,SAEs (Related): Overall,Total (N = 214),39 (18.2) n (%)
same,SAEs (Related): Pneumonia,Total (N = 214),1 (0.5) n (%)
same,Treatment-related AE leading to discontinuation: Acute kidney injury,Total (N = 214),2 (0.9) n (%)
same,Treatment-related AE leading to discontinuation: Asthenia,Total (N = 214),1 (0.5) n (%)
same,Treatment-related AE leading to discontinuation: Dermatitis bullous,Total (N = 214),1 (0.5) n (%)
same,Treatment-related AE leading to discontinuation: Drug eruption,Total (N = 214),1 (0.5) n (%)
same,Treatment-related AE leading to discontinuation: Enterocolitis,Total (N = 214),1 (0.5) n (%)
same,Treatment-related AE leading to discontinuation: Fatigue,Total (N = 214),1 (0.5) n (%)
same,Treatment-related AE leading to discontinuation: Hyperglycaemia,Total (N = 214),1 (0.5) n (%)
same,Treatment-related AE leading to discontinuation: Interstitial lung disease,Total (N = 214),1 (0.5) n (%)
same,Treatment-related AE leading to discontinuation: Lipase increased,Total (N = 214),2 (0.9) n (%)
same,Treatment-related AE leading to discontinuation: Metabolic acidosis,Total (N = 214),1 (0.5) n (%)
